The target in assay [1] is T1, human VEGFA165 (human, UniProt P15692 207-395). The assay is described as follows: cell-based or functional assay.
Assay [2] addresses T1, human VEGFA165. The assay is described as follows: KinExA kinetic exclusion assay at 37 C, solution equilibrium with hVEGFA165. The source says: (§1) A KinExA 3200 instrument is used to measure binding kinetics to human VEGFA165. Briefly, human VEGFA165 is covalently coupled to NHS-activated sepharose beads (GE Healthcare #17-0906-01) and the binding of free Mab to the conjugated beads is detected on the KinExA 3200. […] (depending on the temperature analyzed) in Casein Blocking Buffer (ThermoFisher #37528). […] It follows that the relative intensity of signal generated in these steps is proportional to the degree of free/uncomplexed compound present in each solution tested. The resultant composite set of fluorescent intensities is plotted as a function of the concentration of human VEGFA165 present in each discrete sample and fit using the N-curve analysis software (KinExA) to a standard two state binding model to determine KD for the given MOI. Statistical confidence is reported by calculation of the 95% confidence intervals.

Assay [3] addresses T1, human VEGFA165. The assay is described as follows: KinExA kinetic exclusion assay at 25 C, solution equilibrium with hVEGFA165.
From the text: as §1
Background: Kinetic exclusion samples the free partner from a solution-phase mixture.

In assay [4] the target is T1, human VEGFA165. The assay is described as follows: Biacore SPR at 25 C; antibody captured on Protein A, hVEGFA165 as analyte; 1:1 fit. As to the method: (§2) Immobilization of soluble Protein A (Calbiochem #539202) on a CM4 (GE Healthcare #BR-1005-34) or CMS (GE Healthcare #BR-1000-99) is prepared using EDC/NHS amine coupling method (GE Healthcare #BR-1000-50). Briefly, the surfaces of all four flow cells is activated by injecting a 1:1 mixture of EDC/NHS for seven minutes at 10 μL/min After which, soluble protein A is diluted to 50-100 μg/mL in 10 mM acetate buffer, pH 4.5, and immobilized for seven minutes onto flow cell (Fc) 2, 3 or 4 at a flow rate of 10 μL/min. Unreacted sites still remaining on the chip surface are blocked with a seven minute injection of ethanolamine at 10 μL/min Running buffer is HBS-EP+ (GE Healthcare #BR-1006-69) with addition of 100 mM NaCl. Compound samples are prepared at 1 μg/mL by dilution into running buffer. […] Resultant data is processed using standard double-referencing and fit to a 1:1 binding model using Biacore 2000 Evaluation software, version 4.1, to determine the association rate (kₒₙ, M⁻¹s⁻¹ units), dissociation rate (koff, s⁻¹ units). Calculation of the equilibrium dissociation constant (KD) is calculated from the following relationship, KD=koff/kₒₙ, and is presented in molar units.
A general note: Surface plasmon resonance follows binding to a sensor surface in real time, without labels.

Assay [5] has as its target T1, human VEGFA165. Kind of assay: Biacore SPR at 25 C; antibody captured on Protein A, hVEGFA165 as analyte; value called an upper limit. As to the method: as §2
For assay [6], the target named is T1, human VEGFA165. Kind of assay: Biacore SPR at 25 C; antibody captured on Protein A, hVEGFA165 as analyte; 1:1 fit; off-rate too slow to quantitate accurately. As to the method:
as §2

T1 sequence (P15692 other isoform, or with tags, fused parts or gaps): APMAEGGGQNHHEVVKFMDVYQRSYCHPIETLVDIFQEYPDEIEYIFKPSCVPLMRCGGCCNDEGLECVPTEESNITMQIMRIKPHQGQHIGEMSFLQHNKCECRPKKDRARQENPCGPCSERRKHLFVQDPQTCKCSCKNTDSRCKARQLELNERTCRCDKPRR

B1: parental anti-VEGFA antibody of Compound A (antibody, human IgG4 S228P, kappa, F234A L235A, V domains shown)
VH: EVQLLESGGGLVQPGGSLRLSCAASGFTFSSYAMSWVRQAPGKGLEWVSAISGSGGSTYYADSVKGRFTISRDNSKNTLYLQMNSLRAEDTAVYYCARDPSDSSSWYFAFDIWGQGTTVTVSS
VL: DIVMTQSPATLSVSPGQRATLSCRASQNIRNNLAWYQQKRGQAPRLLIYGASTRATGIPDRFSGSGSGADFTLTISKLEPEDFAVYYCQQYGSSPRTFGQGTKVDIKR
notes: also called Parental VEGFA Ab; parental VEGFA antibody
For orientation: Kd means a measure of binding affinity in units of concentration. What is called kon is the second-order rate constant of association. Low values mean slow association, high ones fast association. As usually defined, the koff is a measure of how fast the partners let go of each other. Consider B1, for which the “IC50 for inhibition of VEGFA165 induced proliferation of ECFC (3H thymidine)” value in assay [1] came to 1.38 nM. Moreover, the “IC50 for inhibition of VEGFA induced cord formation in ADSC/ECFC co-culture (total tube area)” value in assay [1] turned out to be 1.57 nM. Moreover, the Kd in assay [2] was 0.183 nM; in assay [3], 0.027 nM; in assay [5], ≤ 0.0132 nM. In addition, the kon in assay [4] came to 2.93e+06 M⁻¹ s⁻¹. This molecule showed a koff in assay [6] of 3.9e-05 s⁻¹.
